Publication PMC2646144, “Crucial Role of the CB3-Region of Collagen IV in PARF-Induced Acute Rheumatic Fever” (PLoS ONE, 2009)

Molecular target: T1, GST-M3-protein (recombinant streptococcal M-protein type 3) (S. pyogenes)
T1 construct: M-protein type 3 (M3-protein) of Streptococcus pyogenes; emm3 amplified from chromosomal DNA of the M3 strain with primers M3-1 (BamHI) and M3-3 (SalI); The GST tag is named on the protein for electron microscopy and the pull-down; also called M3-GST; GST-tagged M-protein type M3; source: E. coli, pGEX6P-1, purified under native conditions; not shown: GST, N-terminal, kept
Experiment: SPR; BIAcore 2000, CIV or CB3 immobilised on CM5 chip by amine coupling, M3-protein injected at 6.25-50 µg/ml, 10 mM HEPES, 100 mM NaCl, pH 7.4; apparent dissociation constants
Settings: both partners purified

B1: Cyanogen bromide fragment 3 (CB3) of collagen type IV (domain or fragment)
chain 1: PGVGEKGEPGKPGPRGKPGKDGDKGEKGSPGFPGEPGYPGLIGRQGPQGEKGEAGPPGPPGIVIGTGPLGEKGERGYPGTPGPRGEPGPKGFPGLPGQPGPPGLPVPGQAGAPGFPGERGEKGDRGFPGTSLPGPSGRDGLPGPPGSPGPPGQPGYTNGIVECQPGPPGDQGPPGIPGQPGFIGEIGEKGQKGESCLICDIDGYRGPPGPQGPPGEIGFPGQPGAKGDRGLPGRDGVAGVPGPQGTPGLIGQPGAKGEPGEFYFDLRLKGDKGDPGFPGQPGM
chain 2: GFPGLRGYPGLSGEKGSPGQKGSRGLDGYQGPDGPRGPKGEAGDPGPPGLPAYSPHPSLAKGARGDPGFPGAQGEPGSQGEPGDPGLPGPPGLSIGDGDQRRGLPGEM
chain 3: GPKGFIGDPGIPALYGGPPGPDGKRGPPGPPGLPGPPGPDGFLFGLKGAKGRAGFPGLPGSPGARGPKGWKGDAGECRCTEGDEAIKGLPGLPGPKGFAGINGEPGRKGDRGDPGQHGLPGFPGLKGVPGNIGAPGPKGAKGDSRTITTKGERGQPGVPGVPGM
modifications: 125I (chloramine T method) in the pull-down, bacterial binding and overlay assays | 125I (chloramine T method) in the pull-down, bacterial binding and overlay assays
Kd: 60 nM
